Measured values: publication PMC10873556, “G-quadruplex DNA structure is a positive regulator of MYC transcription”

Columns and labels:
SP1 [1] = biological target: T1, SP1 (human, UniProt P08047 1-785); test: BLI; 100 mM KCl, 12.5 mM MgCl2, 0.01 mM Zn(OAc)2; apparent, most abundant population, 2:1 heterogeneous ligand fit; BLI: 25 mM HEPES pH 7.5, 100 mM KCl, 12.5 mM MgCl2, 20% glycerol, 0.1% Igepal CA-630, 0.01 mM Zn(OAc)2, 1 mM DTT, 3% BSA, temperature not stated; pull-down: oligos annealed in 10 mM Tris-HCl pH 7.4 with (G4) or without (ds) 100 mM KCl; conditions: protein: recombinant; intramolecular G4
T1 sequence (P08047 whole entry): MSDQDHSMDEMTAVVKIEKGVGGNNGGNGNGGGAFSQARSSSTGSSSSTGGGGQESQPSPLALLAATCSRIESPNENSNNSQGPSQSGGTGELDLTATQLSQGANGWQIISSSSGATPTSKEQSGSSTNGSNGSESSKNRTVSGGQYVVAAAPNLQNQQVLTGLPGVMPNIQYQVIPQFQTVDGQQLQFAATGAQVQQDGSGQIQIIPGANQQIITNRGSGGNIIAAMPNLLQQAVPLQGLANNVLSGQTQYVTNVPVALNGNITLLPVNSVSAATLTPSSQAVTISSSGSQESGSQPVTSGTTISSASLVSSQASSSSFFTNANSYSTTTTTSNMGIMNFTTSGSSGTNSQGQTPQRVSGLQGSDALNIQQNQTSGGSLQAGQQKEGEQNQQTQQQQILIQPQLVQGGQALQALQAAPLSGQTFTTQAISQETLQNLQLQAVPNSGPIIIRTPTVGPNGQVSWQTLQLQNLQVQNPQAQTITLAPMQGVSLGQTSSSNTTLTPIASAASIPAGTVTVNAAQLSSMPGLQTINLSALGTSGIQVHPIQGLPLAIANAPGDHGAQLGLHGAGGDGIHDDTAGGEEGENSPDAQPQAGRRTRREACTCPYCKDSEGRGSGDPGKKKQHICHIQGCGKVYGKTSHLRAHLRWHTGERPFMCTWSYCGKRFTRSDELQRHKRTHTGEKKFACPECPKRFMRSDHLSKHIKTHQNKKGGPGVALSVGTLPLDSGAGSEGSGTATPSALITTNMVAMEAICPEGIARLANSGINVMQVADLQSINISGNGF

SP1 [2] = biological target: T1, SP1; test: BLI; 100 nM SP1; negligible binding; BLI: 25 mM HEPES pH 7.5, 100 mM KCl, 12.5 mM MgCl2, 20% glycerol, 0.1% Igepal CA-630, 0.01 mM Zn(OAc)2, 1 mM DTT, 3% BSA, temperature not stated; pull-down: oligos annealed in 10 mM Tris-HCl pH 7.4 with (G4) or without (ds) 100 mM KCl; conditions: protein: recombinant

B1: MYC G4 ss (structured_DNA)
DNA: TTTTTGGGGAGGGTGGGGAGGGTGGGGAAGG
- Kd (SP1 [1]): 5.6 nM

B2: MYC MUT ss (ssDNA)
DNA: TTTTTTAAGAGCGTTAAGAGCGTGAACAAGG
- binding result (SP1 [2]): no binding
